Reference: patent US20240409638A1 (AVACTA LIFE SCIENCES, published 2024)
Several values for one entry are separate records, joined by “and”; a condition that tells them apart may be missing. Equal values may be shown once. Values belong to the binder of their own block, whether it stands above or below them.

Key:
[1] = biological target: T1, human serum albumin (HSA) (human, UniProt P02768 25-609); assay: SPR (Biacore) kinetics: HSA immobilised on a CM5 chip, AFFIMER as analyte, pH 7.4
T1 construct: The assays used bought HSA (Sigma #A37812 in the SPR work); also called HuSA

[2] = biological target: T2, human PD-L1-Fc (R&D Systems) (human, UniProt Q9NZQ7 19-239); assay: SPR (Biacore) kinetics: human PD-L1-Fc immobilised on a CM5 chip, AFFIMER as analyte
T2 construct: Bought reagent; also called huPD-L1-Fc; huPD-L1; not shown: Fc part of the bought fusion

[3] = biological target: T2, human PD-L1-Fc (R&D Systems); assay: human PD-L1-Fc/HSA bridging ELISA: huPD-L1-Fc coated, AFFIMER titrated with 10 µM HSA, detection with HRP-conjugated anti-HSA antibody (the signal needs PD-L1 and HSA bound at once)
Experimental: After saturation with 5% casein/PBS buffer, the plates were washed and a dilution of AFFIMER® polypeptides or controls was incubated with HSA at a final concentration of 10 μM for 90 minutes. Plates were then washed, and a […] polyclonal antibody, anti-HSA (HRP-conjugated) (Abcam), was added for 90 minutes. After a last washing step, TMB was added for the development of the experiment and the plates were read at 450 nm. The EC₅₀ was then calculated using the interpolated non-linear four-parameters standard curve (FIG. 10).

[4] = biological target: T3, PD-L1 on cells (NCI-H441 cells; aAPC PD-L1/CHO-K1 cells, Promega) (human, UniProt Q9NZQ7 19-290); assay: cell-based or functional assay
[5] = biological target: T3, PD-L1 on cells (NCI-H441 cells; aAPC …); assay: flow cytometry, % positive cells, NCI-H441 cells (endogenous PD-L1)
Experimental: (§1) Lung cancer cell line (NCI-H441 (ATCC), CHO-K1 recombinant cell line overexpressing PD-L1 aAPC/CHO-K1 (Promega J1252)) and a negative cell line (CHO-K1, ATCC) were used to assess AFFIMER® agent binding capacity to PD-L1 by flow cytometry.
(§2) Briefly, 50 000 cells were added to each well of a 96-well microplate. After this step and each subsequent step, cells were washed twice with PBS+2 mM EDTA using 350g centrifugation for 3 minutes at 4° C. All steps were performed at 4° C. using assay buffer comprising 5% FBS, 2 mM EDTA and 0.05% sodium azide in PBS unless otherwise stated. Independent AFFIMER® agent dilutions were prepared in duplicate and added to the plates. […] Fixation was performed for 10 minutes at 4° C. with Fixation Buffer (Bio-techne FC004). Cells were resuspended in 100 ul assay buffer prior the acquisition of the data. 5000 events were collected by Flow cytometry (Millipore Guava 12HT). The results were gated on live cells and singlets (SSC-H vs SSC-A). The percentage of cells expressing PD-L1 bound by the AFFIMER® agent (positive cells) was determined by using as negative control (background) where the wells were stained with the AF488 conjugated secondary antibody only without AFFIMER® agent. The average of the duplicate wells was used to calculate EC₅₀ using a four-parameter non-linear regression curve fit using Graphpad Prism software. […]

[6] = biological target: T2, human PD-L1-Fc (R&D Systems); assay: PD-L1/PD-1 competition ELISA (binding inhibition %): human PD-1-Fc coated, AFFIMER preincubated with huPD-L1-Fc at its EC80, bound PD-L1 detected; blocked ligand: human PD-1-Fc. The table column is headed 'EC50 (nM)'; the text calls the values IC50
Experimental: Plates were washed two times with washing buffer (PBS, Tween 20 0.1%) with a plate washer and saturated with Casein 5% (Sigma) in PBS for 90 minutes at room temperature (25±1° C.). […] Plates were washed 3 times as described previously. […] Plates were washed 3 times as described previously and Streptavidin-HRP was added, and the plates were incubated for 30 minutes at room temperature (25±1° C.). Plates were washed a last time and the substrate (TMB; Pierce Thermo-Scientific) was added to the plate. After 10 minutes, the reaction was stopped using an acidic solution and the plates were read at absorbance 450-630 nm. The IC₅₀ was then calculated using the interpolated non-linear four-parameters standard curve.

[7] = biological target: T2, human PD-L1-Fc (R&D Systems); assay: SPR (Biacore 8K): human PD-L1-Fc amine-coupled on a CM5 chip, AFFIMER as analyte, 1:1 Langmuir fit
[8] = biological target: T1, human serum albumin (HSA); assay: SPR (Biacore 8K): HSA amine-coupled on a CM5 chip, AFFIMER as analyte, pH 7.4, 1:1 Langmuir fit
Experimental: (§3) For the HSA binding kinetic analysis, HSA (Sigma #A37812) was immobilized on a CM5 chip surface using amine coupling in 10 mM sodium acetate (pH 5.0) (Cytvia). […] The chip surface was regenerated with 3 mM NaOH for 20 seconds at a flow rate of 20 μl/min. The kinetic data was blank subtracted and fit to a 1:1 Langmuir binding model (BIAcore evaluation software; Cytiva).

[9] = biological target: T1, human serum albumin (HSA); assay: SPR (Biacore 8K): HSA amine-coupled on a CM5 chip, AFFIMER as analyte, pH 6.0, 1:1 Langmuir fit
Experimental: as §3

[10] = biological target: T1, human serum albumin (HSA); assay: HSA binding ELISA: HSA coated, bound AFFIMER detected with biotinylated anti-cystatin A antibody and streptavidin-HRP
Experimental: (§4) Plates were washed and AFFIMER® polypeptides were detected using streptavidin-HRP for 30 min. After the last washing step, the TMB substrate was added for the development of the experiment and plates were read at 450 nm. The EC₅₀ was then calculated using the interpolated non-linear four-parameters standard curve.

[11] = biological target: T2, human PD-L1-Fc (R&D Systems); assay: human PD-L1-Fc binding ELISA: huPD-L1-Fc coated, anti-cystatin A detection, with 10 µM HSA in the assay buffer
Experimental: as §4

[12] = biological target: T2, human PD-L1-Fc (R&D Systems); assay: human PD-L1-Fc binding ELISA: huPD-L1-Fc coated, anti-cystatin A detection, no HSA in the assay buffer
Experimental: as §4

[13] = biological target: T3, PD-L1 on cells (NCI-H441 cells; aAPC …); assay: flow cytometry on NCI-H441 cells endogenously expressing PD-L1, anti-cystatin A antibody and AF488 secondary antibody, % positive cells
[14] = biological target: T3, PD-L1 on cells (NCI-H441 cells; aAPC …); assay: flow cytometry, % positive cells, aAPC PD-L1/CHO-K1 cells (overexpressing PD-L1)
Experimental: as §1, §2

[15] = biological target: T3, PD-L1 on cells (NCI-H441 cells; aAPC …); assay: flow cytometry on PD-L1 expressing cells
[16] = biological target: T1, human serum albumin (HSA); assay: HSA binding ELISA: HSA coated, anti-cystatin A detection

T2 sequence (Q9NZQ7 19-239 limits assumed): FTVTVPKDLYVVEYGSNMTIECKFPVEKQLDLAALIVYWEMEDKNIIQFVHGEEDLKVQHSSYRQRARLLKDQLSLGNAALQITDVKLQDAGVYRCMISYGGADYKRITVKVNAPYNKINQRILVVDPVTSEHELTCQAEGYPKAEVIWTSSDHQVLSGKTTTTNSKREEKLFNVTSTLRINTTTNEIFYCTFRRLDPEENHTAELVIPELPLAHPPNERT
T3 sequence (Q9NZQ7 19-290): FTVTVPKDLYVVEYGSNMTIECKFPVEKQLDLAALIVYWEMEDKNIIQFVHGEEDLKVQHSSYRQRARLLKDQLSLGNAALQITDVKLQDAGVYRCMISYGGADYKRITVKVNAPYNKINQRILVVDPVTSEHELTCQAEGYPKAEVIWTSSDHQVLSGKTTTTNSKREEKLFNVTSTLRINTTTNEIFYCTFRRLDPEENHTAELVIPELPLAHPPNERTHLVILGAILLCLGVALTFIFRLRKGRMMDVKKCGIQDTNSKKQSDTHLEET
T1 sequence (P02768 25-609): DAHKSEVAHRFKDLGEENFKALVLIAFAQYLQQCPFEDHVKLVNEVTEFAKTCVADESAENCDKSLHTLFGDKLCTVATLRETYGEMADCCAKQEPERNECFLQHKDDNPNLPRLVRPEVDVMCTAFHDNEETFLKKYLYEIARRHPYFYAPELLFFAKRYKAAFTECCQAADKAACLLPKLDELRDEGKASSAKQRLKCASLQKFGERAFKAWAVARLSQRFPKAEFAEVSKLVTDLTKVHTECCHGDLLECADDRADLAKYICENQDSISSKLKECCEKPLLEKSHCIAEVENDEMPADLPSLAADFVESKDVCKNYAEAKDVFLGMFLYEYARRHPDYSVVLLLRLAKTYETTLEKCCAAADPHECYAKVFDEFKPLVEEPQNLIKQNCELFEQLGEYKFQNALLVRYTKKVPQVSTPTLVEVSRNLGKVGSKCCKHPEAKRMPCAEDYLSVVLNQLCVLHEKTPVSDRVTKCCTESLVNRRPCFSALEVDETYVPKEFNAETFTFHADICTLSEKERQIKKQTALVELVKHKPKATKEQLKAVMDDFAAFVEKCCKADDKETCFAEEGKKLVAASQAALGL

B1: Clone 80 XT40 (designed binder)
chain: MIPGGLSEAKPATPEIQEIVDKVKPQLEEKTGETYGKLEAVQYKTQVVRRKHFPQWPGTNYYIKVRAGDNKYMHLKVFKSLDLQPREVFQEDLVLTGYQVDKNKDDELTGFAEAAAKEAAAKEAAAKEAAAKEAAAKEAAAKMIPRGLSEAKPATPEIQEIVDKVKPQLEEKTNETYGKLEAVQYKTQVLANFFQRRWPGSTNYYIKVRAGDNKYMHLKVFNGPWKFRNTDRGADRVLTGYQVDKNKDDELTGFFAEAAAKEAAAKEAAAKEAAAKEAAAKEAAAKMIPGGLSEAKPATPEIQEIVDKVKPQLEEKTGETYGKLEAVQYKTQVVRRKHFPQWPGTNYYIKVRAGDNKYMHLKVFKSLDLQPREVFQEDLVLTGYQVDKNKDDELTGF
notes: HSA-41 sits in the middle position between two Clone 80 units, joined by rigid A(EAAAK)6 linkers; Made in E. coli; No tag is stated for this construct
Kd [1]: 1540 pM
koff [1]: 0.00273 s⁻¹
kon [1]: 1.77e+06 M⁻¹ s⁻¹
Kd [2]: 66.8 pM
koff [2]: 9.33e-05 s⁻¹
kon [2]: 1.4e+06 M⁻¹ s⁻¹

B2: Clone 80 XT34 (anti-PD-L1 type III AFFIMER® XT in-line fusion monomer XT) (designed binder)
chain: MIPGGLSEAKPATPEIQEIVDKVKPQLEEKTGETYGKLEAVQYKTQVVRRKHFPQWPGTNYYIKVRAGDNKYMHLKVFKSLDLQPREVFQEDLVLTGYQVDKNKDDELTGFAEAAAKEAAAKEAAAKEAAAKEAAAKEAAAKMIPRGLSEAKPATPEIQEIVDKVKPQLEEKTNETYGKLEAVQYKTQVLANFFQRRWPGSTNYYIKVRAGDNKYMHLKVFNGPWKFRNTDRGADRVLTGYQVDKNKDDELTGFHHHHHH
notes: Made in E. coli; LC/MS found a +42-43 Da species, assigned as acetylated; also called XT34_1; XT34_2
EC50 [3]: 560 pM
half-maximal concentration of PD-1/PD-L1 blockade (% of inhibition, NFAT-luciferase reporter cells; IC50) [4]: 105 nM
EC50 [5]: 640 pM and 1280 pM
IC50 [6]: 2300 pM
Kd [7]: 224 pM
Kd [8]: 5010 pM
koff [8]: 0.00364 s⁻¹
kon [8]: 727000 M⁻¹ s⁻¹
Kd [9]: 3360 pM
koff [9]: 0.00271 s⁻¹
kon [9]: 808000 M⁻¹ s⁻¹
EC50 [10]: 20 pM
EC50 [11]: 30 pM
EC50 [12]: 20 pM
EC50 (read off the curve) [13]: ~1000 pM
EC50 [14]: 100 pM

B6: Clone 80 XT41 (designed binder)
chain: MIPGGLSEAKPATPEIQEIVDKVKPQLEEKTGETYGKLEAVQYKTQVVRRKHFPQWPGTNYYIKVRAGDNKYMHLKVFKSLDLQPREVFQEDLVLTGYQVDKNKDDELTGFGGGGSGGGGSGGGGSGGGGSGGGGSGGGGSMIPRGLSEAKPATPEIQEIVDKVKPQLEEKTNETYGKLEAVQYKTQVLANFFQRRWPGSTNYYIKVRAGDNKYMHLKVFNGPWKFRNTDRGADRVLTGYQVDKNKDDELTGFGGGGSGGGGSGGGGSGGGGSGGGGSGGGGSMIPRGLSEAKPATPEIQEIVDKVKPQLEEKTNETYGKLEAVQYKTQVLANFFQRRWPGSTNYYIKVRAGDNKYMHLKVFNGPWKFRNTDRGADRVLTGYQVDKNKDDELTGF
notes: One Clone 80 and two HSA-41 units joined by flexible (G4S)6 linkers; Made in E. coli; No tag is stated for this construct
Kd [1]: 180 pM
koff [1]: 0.00189 s⁻¹
kon [1]: 1.05e+07 M⁻¹ s⁻¹
Kd [2]: 172 pM
koff [2]: 0.000212 s⁻¹
kon [2]: 1.24e+06 M⁻¹ s⁻¹

Further lines, results first:

binding result [15]: no binding
Kd [8]: 1450 pM
koff [8]: 0.00259 s⁻¹
kon [8]: 1.79e+06 M⁻¹ s⁻¹
Kd [9]: 1280 pM
koff [9]: 0.00205 s⁻¹
kon [9]: 1.61e+06 M⁻¹ s⁻¹
EC50 [10]: 40 pM
B3: DC XT46 (trimer in-line fusion XT control) (designed binder)
chain: MIPGGLSEAKPATPEIQEIVDKVKPQLEEKTGETYGKLEAVQYKTQVVGGGGGGGGGGTNYYIKVRAGDNKYMHLKVFKSLGGGGGGGGGEDLVLTGYQVDKNKDDELTGFAEAAAKEAAAKEAAAKEAAAKEAAAKEAAAKMIPGGLSEAKPATPEIQEIVDKVKPQLEEKTGETYGKLEAVQYKTQVVGGGGGGGGGGTNYYIKVRAGDNKYMHLKVFKSLGGGGGGGGGEDLVLTGYQVDKNKDDELTGFAEAAAKEAAAKEAAAKEAAAKEAAAKEAAAKMIPRGLSEAKPATPEIQEIVDKVKPQLEEKTNETYGKLEAVQYKTQVLANFFQRRWPGSTNYYIKVRAGDNKYMHLKVFNGPWKFRNTDRGADRVLTGYQVDKNKDDELTGF

Kd [1]: 1070 pM
koff [1]: 0.00436 s⁻¹
kon [1]: 4.06e+06 M⁻¹ s⁻¹
EC50 [16]: 850 pM
B4: HSA-41 (anti-serum albumin AFFIMER® polypeptide, monomer) (designed binder)
chain: MIPRGLSEAKPATPEIQEIVDKVKPQLEEKTNETYGKLEAVQYKTQVLANFFQRRWPGSTNYYIKVRAGDNKYMHLKVFNGPWKFRNTDRGADRVLTGYQVDKNKDDELTGF
notes: No tags are stated; also called HSA-41 monomer; XT polypeptide

binding result [15]: no binding
Kd [8]: 1080 pM
koff [8]: 0.00272 s⁻¹
kon [8]: 2.52e+06 M⁻¹ s⁻¹
Kd [9]: 7360 pM
koff [9]: 0.00276 s⁻¹
kon [9]: 375000 M⁻¹ s⁻¹
EC50 [10]: 20 pM
B5: DC XT45 (dimer in-line fusion XT control) (designed binder)
chain: MIPGGLSEAKPATPEIQEIVDKVKPQLEEKTGETYGKLEAVQYKTQVVGGGGGGGGGGTNYYIKVRAGDNKYMHLKVFKSLGGGGGGGGGEDLVLTGYQVDKNKDDELTGFAEAAAKEAAAKEAAAKEAAAKEAAAKEAAAKMIPRGLSEAKPATPEIQEIVDKVKPQLEEKTNETYGKLEAVQYKTQVLANFFQRRWPGSTNYYIKVRAGDNKYMHLKVFNGPWKFRNTDRGADRVLTGYQVDKNKDDELTGF
